Laboratory results as given in PMC4930772.
Blank lines part the entries; values can stand above or below the substance they belong to.

Target: PP2A B56γ1 30-380 (UniProt Q13362)
Assay: ITC
[1] = reference: wild type, sites T680
[2] = reference: wild type, sites S670
[3] = reference: wild type, sites S676

Substance: BubR1 647-720 (from UniProt O60566) 3D (S670D/S676D/T680D)
- KD (reference: wild type, sites S670,S676,T680): same; reference 2.91 ± 0.50

Substance: BubR1 647-720 (from UniProt O60566) AAAA (E678A/T680A/H681A)
- KD [1]: weaker; reference 2.91 ± 0.50

Substance: BubR1 647-720 (from UniProt O60566) DDT (S670D/S676D)
- KD (reference: wild type, sites S670,S676): same; reference 2.91 ± 0.50

Substance: BubR1 647-720 (from UniProt O60566) DSD (S670D/T680D)
- KD (reference: wild type, sites S670,T680): same; reference 2.91 ± 0.50

Substance: BubR1 647-720 (from UniProt O60566) SDD (S676D/T680D)
- KD (reference: wild type, sites S676,T680): same; reference 2.91 ± 0.50

Substance: BubR1 667-681 (from UniProt O60566) pS676 15-mer
- KD (reference: unphosphorylated 15-mer, sites S676): stronger; reference 2.80 ± 0.30

Substance: BubR1 667-681 (from UniProt O60566) pS676/pT680 15-mer
- KD (reference: pS676 15-mer, sites T680): same; reference 0.69 ± 0.11
- KD (reference: unphosphorylated 15-mer, sites S676,T680): stronger; reference 2.80 ± 0.30

The next lines start with the values.

- KD [2]: same; reference 2.91 ± 0.50
Substance: BubR1 647-720 (from UniProt O60566) DST (S670D)

- KD [2]: same; reference 2.91 ± 0.50
Substance: BubR1 647-720 (from UniProt O60566) S670A

- KD [3]: same; reference 2.91 ± 0.50
Substance: BubR1 647-720 (from UniProt O60566) S676A

- KD [3]: same; reference 2.91 ± 0.50
Substance: BubR1 647-720 (from UniProt O60566) SDT (S676D)

- KD [1]: same; reference 2.91 ± 0.50
Substance: BubR1 647-720 (from UniProt O60566) SSD (T680D)

- KD (reference: B56γ1 wild type, sites S670): weaker; reference 0.25 ± 0.06
Substance: BubR1 667-681 (from UniProt O60566) B56γ1 R188A

- KD (reference: unphosphorylated 15-mer, sites S670): stronger; reference 2.80 ± 0.30
Substance: BubR1 667-681 (from UniProt O60566) pS670 15-mer
